Among the data in PMC6697681, “The predominance of nucleotidyl activation in bacterial phosphonate biosynthesis” (Nature Communications, 2019) are Km values, retold here.

Substrate in the series: NCCP(=O)(O)O
The experiment in a line: purified protein. Conditions: saturating CTP (4 mM), 7 mM MgCl2, room temperature.

From the text: coupled pyrophosphate release assay (EnzChek, MESG/PNP), initial rates on Tde-PntC (Tde1415)

B1: Tde-PntC (Tde1415) (Treponema denticola ATCC 35405) (protein)
chain: MIKQAVILAGGLGSRLKDKTKTMPKGFLEIGGTAIVEQSVQKLLAHGIEKIVIGTGHCNEYYDNLAKKYPAIITVKNENYANTGSMGTLEVCASFVNESFLLLESDLIYDSAGLFSLINDERKNLILASGATKSGDEVYLEADEKNCLTGLSKNRDALKNIFGELVGITKLTKSTLDKMCAYAKIHHSDLPKMEYEHALLEAAKTIPVAIKRIEYFVWREIDNEDHLEMAVKNIYPHIVENEKLRAVRREVLLNPGPATTTDSVKYAQVSADICPREKAFGDLMQWLCDELKLFALASETNPDEYETVMFGCSGTGADEVMVSSCVPDTGRLLVIDNGSYGARMAKIADIYKIPMDIFKSSTYEPLDLQKLEAEFATKKYTHLACVYHETTTGLLNPLHIICPMAKKYGMVTIVDAVSAYCGMPMDLKSLGIDFMASTSNKNIQGMAGVGFVICNKAELEKTKDYPMRNYYLNLYDQYAYFAKTHQTRFTPPVQTMYALRQAVLETKQETVQKRYERYTACWNILVAAIKKLGLKMLVKEEHQSHFITAILEPETPKYSFEALHDFAAEHSFTIYPGKLGNIDTFRIANIGDIQPEEMRRFTVKLKEYMNGIGVGV
In general, Km refers to the concentration of substrate that gives half-maximal velocity. On to B1, for which the Km came to 16 ± 5 µM.
